In patent publication US20120316071A1 (published 2012):

How the values were obtained:
[1] = molecular target: T1, rHuman HGF R/c-MET/Fc Chimera, CF (R&D Systems Cat#358-MT/CF) (human, UniProt P08581 25-932); assay: MSD multispot ECL, antigen spotted, Fab 9.3 nM; blank spot 287
T1 construct: Bought reagent; also called HGF R/Fc; hepatocyte growth factor receptor

[2] = molecular target: T2, Recombinant Human DLL4 (R&D Systems Cat#1506-D4/CF) (human, UniProt Q9NR61 27-524); assay: as above
T2 construct: Bought recombinant protein; also called rHuman DLL4; delta-like protein 4

[3] = molecular target: T3, rHuman Notch-1/Fc Chimera, CF (R&D Systems Cat#3647-TK) (human, UniProt P46531 19-526); assay: as above
T3 construct: Bought reagent

[4] = molecular target: T4, rHuman IGF-1 sR, (IGF-1 sR), CF (R&D Systems Cat#391-GR) (human, UniProt P08069 31-932); assay: as above
T4 construct: Bought soluble receptor; also called insulin-like growth factor-1 soluble receptor

[5] = molecular target: T5, rHuman EGF R/Fc Chimera, CF (R&D Systems Cat#344-ER) (human, UniProt P00533 25-645); assay: as above
T5 construct: Bought reagent; also called epidermal growth factor receptor

[6] = molecular target: T6, rHuman ErbB2/Fc Chimera, CF (R&D Systems Cat#1129-ER) (human, UniProt P04626 23-652); assay: as above
T6 construct: Bought reagent; also called human epidermal growth factor 2 receptor

[7] = molecular target: T7, rHuman Erythropoietin R/Fc Chimera, CF (R&D Systems Cat#963-ER) (human, UniProt P19235 25-250); assay: as above
T7 construct: Bought reagent; also called EPO R/Fc; Epo R
T7 sequence (looked up): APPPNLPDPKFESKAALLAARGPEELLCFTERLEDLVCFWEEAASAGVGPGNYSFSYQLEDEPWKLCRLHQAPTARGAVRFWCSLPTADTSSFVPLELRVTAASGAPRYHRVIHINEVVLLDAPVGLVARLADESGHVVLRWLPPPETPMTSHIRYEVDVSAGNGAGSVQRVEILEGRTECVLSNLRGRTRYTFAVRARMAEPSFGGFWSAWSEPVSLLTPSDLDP

[8] = molecular target: T8, rHuman IGF-1 sR, CF (R&D Systems Cat#391-GR) (human, UniProt P08069 31-932); assay: Multispot ECL (MSD), antigen spotted on plate, Fab 31.3 nM; blank spot 250
T8 construct: Bought recombinant soluble receptor; also called insulin-like growth factor-1 soluble receptor

[9] = molecular target: T9, Recombinant Human DLL4 (R&D Systems Cat#1506-D4/CF) (human, UniProt Q9NR61 27-524); assay: as above
T9 construct: Bought recombinant protein; also called rHuman DLL4; delta-like protein 4

[10] = molecular target: T10, rHuman Erythropoietin R/Fc Chimera, CF (R&D Systems Cat#963-ER) (human, UniProt P19235 25-250); assay: as above
T10 construct: Bought recombinant protein; also called EPO R/Fc; Epo R; Fc part of the bought chimera not given
T10 sequence (looked up): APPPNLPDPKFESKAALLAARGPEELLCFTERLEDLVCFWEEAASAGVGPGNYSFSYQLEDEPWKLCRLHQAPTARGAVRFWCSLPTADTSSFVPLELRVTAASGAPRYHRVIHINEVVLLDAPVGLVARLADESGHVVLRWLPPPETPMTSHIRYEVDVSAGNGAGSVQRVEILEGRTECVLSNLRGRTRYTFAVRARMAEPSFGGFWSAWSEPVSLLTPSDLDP

[11] = molecular target: T11, rHuman EGF R/Fc Chimera, CF (R&D Systems Cat#344-ER) (human, UniProt P00533 25-645); assay: MSD multispot ECL, antigen spotted on plate; Fab 0.51 uM; blank spot 1096
T11 construct: Bought recombinant protein; also called epidermal growth factor receptor; Fc part of the bought chimera not given

[12] = molecular target: T12, rHuman CD44/Fc Chimera, CF (R&D Systems Cat#3660-CD) (human, UniProt P16070 21-220); assay: as above
T12 construct: Bought recombinant protein; Fc part of the bought chimera not given

[13] = molecular target: T13, rHuman HGF R/c-MET/Fc Chimera, CF (R&D Systems Cat#358-MT/CF) (human, UniProt P08581 25-932); assay: as above
T13 construct: Bought recombinant protein; also called HGF R/Fc; hepatocyte growth factor receptor; Fc part of the bought chimera not given

[14] = molecular target: T14, rHuman IGF-1 sR, CF (R&D Systems Cat#391-GR) (human, UniProt P08069 31-932); assay: as above
T14 construct: Bought recombinant soluble receptor; also called insulin-like growth factor-1 soluble receptor

[15] = molecular target: T15, rHuman ErbB2/Fc Chimera, CF (R&D Systems Cat#1129-ER) (human, UniProt P04626 23-652); assay: as above
T15 construct: Bought recombinant protein; also called human epidermal growth factor 2 receptor; Fc part of the bought chimera not given

[16] = molecular target: T16, Recombinant Human DLL4 (R&D Systems Cat#1506-D4/CF) (human, UniProt Q9NR61 27-524); assay: as above
T16 construct: Bought recombinant protein; also called delta-like protein 4; rHuman DLL4

[17] = molecular target: T17, rHuman Notch-1/Fc Chimera, CF (R&D Systems Cat#3647-TK) (human, UniProt P46531 19-526); assay: as above
T17 construct: Bought recombinant protein; Fc part of the bought chimera not given

[18] = molecular target: T18, rHuman P-Cadherin/Fc Chimera, CF (R&D Systems Cat#861-PC) (human, UniProt P22223 108-654); assay: as above
T18 construct: Bought recombinant protein; Fc part of the bought chimera not given

[19] = molecular target: T19, rHuman Erythropoietin R/Fc Chimera, CF (R&D Systems Cat#963-ER) (human, UniProt P19235 25-250); assay: as above
T19 construct: Bought recombinant protein; also called EPO R/Fc; Epo R; Fc part of the bought chimera not given
T19 sequence (looked up): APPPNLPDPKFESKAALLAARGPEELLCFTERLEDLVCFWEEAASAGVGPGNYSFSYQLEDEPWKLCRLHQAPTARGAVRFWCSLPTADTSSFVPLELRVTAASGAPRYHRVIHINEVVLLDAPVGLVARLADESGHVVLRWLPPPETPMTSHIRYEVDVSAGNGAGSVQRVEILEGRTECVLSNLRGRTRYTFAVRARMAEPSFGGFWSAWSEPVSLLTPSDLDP

B1: Fab VH1-46_IGHD6-6*01_IGHJ1*01 & L6_IGKJ1*01 (Fab, V domains shown)
VH: QVQLVQSGAEVKKPGASVKVSCKASGYTFTSYYMHWVRQAPGQGLEWMGIINPSGGSTSYAQKFQGRVTMTRDTSTSTVYMELSSLRSEDTAVYYCAREEYSSSSAEYFQHWGQGTLVTVSS
VL: not shown
notes: Only variable domains are tied to the molecule; Tested as a Fab made in E. coli: heavy chain from Plasmid A (CH1 constant region, His6 and Flag tags), kappa light chain from Plasmid C (kappa CL); also called parent Hit Fab against DLL4; VH1-46_IGHD6-6*01_IGHJ1*01 & L6_IGKJ1*01 (parental)
ECL signal [1]: 324 ECL signal
ECL signal [2]: 13200 ECL signal
ECL signal [3]: 492 ECL signal
ECL signal [4]: 315 ECL signal
ECL signal [5]: 424 ECL signal
ECL signal [6]: 354 ECL signal
ECL signal [7]: 306 ECL signal

B2: Fab VH1-46_IGHD6-13*01_IGHJ4*01 & B3_IGKJ1*01 (Fab, V domains shown)
VH: QVQLVQSGAEVKKPGASVKVSCKASGYTFTSYYMHWVRQAPGQGLEWMGIINPSGGSTSYAQKFQGRVTMTRDTSTSTVYMELSSLRSEDTAVYYCAREGYSSSWYDYFDYWGQGTLVTVSS
VL: not shown
notes: Germline Fab made in E. coli; VH was cloned into Plasmid A (CH1, His6 and Flag tags) and the kappa VL into Plasmid C (kappa CL)
ECL signal [8]: 385
ECL signal [9]: 528
ECL signal [10]: 7880

B3: Fab VH4-34_IGHD7-27*01_IGHJ4*01 & L5_IGKJ1*01 (Fab, V domains shown)
VH: QVQLQQWGAGLLKPSETLSLTCAVYGGSFSGYYWSWIRQPPGKGLEWIGEINHSGSTNYNPSLKSRVTISVDTSKNQFSLKLSSVTAADTAVYYCARANWGDYFDYWGQGTLVTVSS
VL: DIQMTQSPSSVSASVGDRVTITCRASQGISSWLAWYQQKPGKAPKLLIYAASSLQSGVPSRFSGSGSGTDFTLTISSLQPEDFATYYCQQANSFPPWTFGQGTKVEIKR
notes: Germline library Fab expressed in E. coli; VH was cloned into Plasmid A, which adds CH1 with His6 and Flag tags
ECL signal [11]: 2360
ECL signal [12]: 2010
ECL signal [13]: 1990
ECL signal [14]: 2240
ECL signal [15]: 1530
ECL signal [16]: 5180
ECL signal [17]: 2770
ECL signal [18]: 2390
ECL signal [19]: 2620
